Experimental data published in the supplement of paper PMC10567573.

B1: GFOD1 (parent)
chain: EEAEELAKEMSVPFYTSRIDEVLL
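Further: lentivirally expressed fusions sorted by FACS into six bins by GFP to DsRed ratio, PSI derived from sequencing read proportions per bin multiplied by bin number.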

Variants of: B1
Assay: protein stability index of a GFP-peptide fusion (GPS, HEK-293T) (PSI 1-6); higher = more stable
Conditions: c terminus: a fixed tail appended
Variant LEAEELAKEMSVPFYTSRIDEVLL has a protein stability index of 3.75.
With MEAEELAKEMSVPFYTSRIDEVLL the protein stability index was 3.45.
In the case of REAEELAKEMSVPFYTSRIDEVLL, the protein stability index is reported as 3.33.
With AEAEELAKEMSVPFYTSRIDEVLL the protein stability index was 3.79.
Variant EEAEELAKEMSVPNYTSRIDEVLL has a protein stability index of 4.68.
Variant EEAEELAKEMSVPKYTSRIDEVLL has a protein stability index of 4.2.
Work on EEAEELAKEMSVPWYTSRIDEVLL yielded a protein stability index of 3.66.
EEAEELAKEMSVPHYTSRIDEVLL showed a protein stability index of 4.2.
With EEAEELAKEMSVPTYTSRIDEVLL the protein stability index was 4.51.
In the case of EEAEELAKEMSVPLYTSRIDEVLL, the protein stability index is reported as 3.79.
EEAEELAKEMSVPAYTSRIDEVLL gave a protein stability index of 4.46.
With EEAEELAKEMSVPGYTSRIDEVLL the protein stability index was 3.4.
With EEADELAKEMSVPFYTSRIDEVLL the protein stability index was 3.97.
EEACELAKEMSVPFYTSRIDEVLL gave a protein stability index of 2.73.
For EEARELAKEMSVPFYTSRIDEVLL, the protein stability index was 3.52.
For EEAAELAKEMSVPFYTSRIDEVLL, the protein stability index was 3.45.
Variant EEAIELAKEMSVPFYTSRIDEVLL has a protein stability index of 3.51.
EEAQELAKEMSVPFYTSRIDEVLL showed a protein stability index of 3.9.
Work on EEAHELAKEMSVPFYTSRIDEVLL yielded a protein stability index of 3.4.
With EEAEELAKEMSLPFYTSRIDEVLL the protein stability index was 3.67.
Variant EEAEELAKEMSYPFYTSRIDEVLL has a protein stability index of 4.22.
For EEAEELAKEMSNPFYTSRIDEVLL, the protein stability index was 4.56.
In the case of EEAEELAKEMSCPFYTSRIDEVLL, the protein stability index is reported as 3.71.
Variant EEAEELAKEMSDPFYTSRIDEVLL has a protein stability index of 3.47.
Work on EEAEELAKEMSVPFYTSWIDEVLL yielded a protein stability index of 3.71.
For EEAEELAKEMSVPFYTSFIDEVLL, the protein stability index was 3.17.
For EEAEELAKEMSVPFYTSKIDEVLL, the protein stability index was 4.26.
EEAEELAKEMSVPFYTSQIDEVLL gave a protein stability index of 4.69.
With EEAEELAKEMSVPFYTSDIDEVLL the protein stability index was 4.79.
With EEAEELAKEMSVPFYTSAIDEVLL the protein stability index was 4.26.
EEKEELAKEMSVPFYTSRIDEVLL gave a protein stability index of 4.38.
In the case of EEHEELAKEMSVPFYTSRIDEVLL, the protein stability index is reported as 3.84.
Variant EEGEELAKEMSVPFYTSRIDEVLL has a protein stability index of 3.95.
In the case of EELEELAKEMSVPFYTSRIDEVLL, the protein stability index is reported as 3.11.
Work on EEYEELAKEMSVPFYTSRIDEVLL yielded a protein stability index of 3.38.
EEEEELAKEMSVPFYTSRIDEVLL gave a protein stability index of 4.32.
Work on EEAEELAVEMSVPFYTSRIDEVLL yielded a protein stability index of 2.85.
Work on EEAEELADEMSVPFYTSRIDEVLL yielded a protein stability index of 3.94.
For EEAEELATEMSVPFYTSRIDEVLL, the protein stability index was 3.89.
In the case of EEAEELAEEMSVPFYTSRIDEVLL, the protein stability index is reported as 4.17.
EEAEELASEMSVPFYTSRIDEVLL gave a protein stability index of 2.89.
With EEAEELAPEMSVPFYTSRIDEVLL the protein stability index was 3.59.
Work on EEAEELAGEMSVPFYTSRIDEVLL yielded a protein stability index of 4.1.
EEAEELAHEMSVPFYTSRIDEVLL gave a protein stability index of 3.66.
For EEAEELALEMSVPFYTSRIDEVLL, the protein stability index was 2.46.
In the case of EEAEELAAEMSVPFYTSRIDEVLL, the protein stability index is reported as 3.66.
For EEAEELAKEMSVPFYTSRIDEVPL, the protein stability index was 4.57.
EEAEELAKEMSVPFYTSRIDEVFL gave a protein stability index of 2.98.
In the case of EEAEELAKEMSVPFYTSRIDEVIL, the protein stability index is reported as 3.66.
With EEAEELAKEMSVPFYTSRIDEVTL the protein stability index was 3.87.
With EEAEELAKEMSVPFYTSRIDEVDL the protein stability index was 5.11.
For EEAEELAKEMSVPFYTSRIDEVVL, the protein stability index was 4.26.
Variant EEAEELAKEMSVPFYTSRIDEVRL has a protein stability index of 4.31.
EEAEELAKEMSVPFYTSRIDFVLL gave a protein stability index of 1.42.
For EEAEELAKEMSVPFYTSRIDKVLL, the protein stability index was 2.56.
EEAEELAKEMSVPFYTSRIDTVLL gave a protein stability index of 3.65.
For EEAEELAKEMSVPFYTSRIDVVLL, the protein stability index was 2.45.
EEAEELAKEMSVPFYTSRIDWVLL gave a protein stability index of 1.83.
In the case of EEAEELAKEMSVPFYTSRIDNVLL, the protein stability index is reported as 3.69.
EEAERLAKEMSVPFYTSRIDEVLL showed a protein stability index of 3.56.
Work on EEAEKLAKEMSVPFYTSRIDEVLL yielded a protein stability index of 4.14.
With EEAECLAKEMSVPFYTSRIDEVLL the protein stability index was 3.79.
For EEAEYLAKEMSVPFYTSRIDEVLL, the protein stability index was 3.98.
EEAEVLAKEMSVPFYTSRIDEVLL gave a protein stability index of 2.58.
With EEAEELAKEKSVPFYTSRIDEVLL the protein stability index was 4.03.
With EEAEELAKEHSVPFYTSRIDEVLL the protein stability index was 4.53.
EEAEELAKEQSVPFYTSRIDEVLL showed a protein stability index of 4.26.
Variant EEAEELAKEFSVPFYTSRIDEVLL has a protein stability index of 3.62.
EEAEELAKERSVPFYTSRIDEVLL showed a protein stability index of 3.81.
Work on EEAEELAKEPSVPFYTSRIDEVLL yielded a protein stability index of 4.5.
In the case of EEAEELAKEASVPFYTSRIDEVLL, the protein stability index is reported as 4.41.
EEAEELAKEYSVPFYTSRIDEVLL gave a protein stability index of 3.63.
With EEAEELAKEDSVPFYTSRIDEVLL the protein stability index was 4.7.
EEAEELAKETSVPFYTSRIDEVLL gave a protein stability index of 4.03.
With EEAEELAKEMSVPFYTSRIDEVLN the protein stability index was 4.6.
For EEAEELAKEMSVPFYTSRIDEVLC, the protein stability index was 4.04.
Work on EEAEELAKEMSVPFYTSRIDEVLM yielded a protein stability index of 3.73.
In the case of EEAEELAKEMSVPFYTSRIDEVLV, the protein stability index is reported as 4.
With EEAEELAKEMSVPFYTSRIDEVLF the protein stability index was 3.55.
In the case of EEAEELAKEMSVPFYTSRIDEVLS, the protein stability index is reported as 4.41.
EEAEELAKEMSVPFYTSRIDEVLY showed a protein stability index of 3.2.
EEAEELAKEMSVPFYTSRIDEVLQ gave a protein stability index of 4.78.
With EEAEELAKEMSVPFYTSRIDEVLP the protein stability index was 4.98.
EEAEELAKEMSVPFYTSRIDEVLT gave a protein stability index of 4.22.
Work on EEAEELAKEMSVPFYTSRFDEVLL yielded a protein stability index of 3.01.
Variant EEAEELAKEMSVPFYTSRCDEVLL has a protein stability index of 4.
With EEAEELAKEMSVPFYTSRTDEVLL the protein stability index was 4.11.
In the case of EEAEELAKEMSVPFYTSRVDEVLL, the protein stability index is reported as 4.31.
Work on EEAEELAKEMSVPFYTSRYDEVLL yielded a protein stability index of 4.64.
In the case of EEAEELAKEMSVPFYTSRLDEVLL, the protein stability index is reported as 3.69.
With EEAEELAKEMSVPFYTSRRDEVLL the protein stability index was 4.57.
Work on EEAEELAKEMSVPFYTSRSDEVLL yielded a protein stability index of 4.75.
For EEAEELAKEMSVPFYTSREDEVLL, the protein stability index was 5.1.
For EEAEELAKEMSVPFYTSRQDEVLL, the protein stability index was 4.93.
